This is an account of results in patent US20210087291A1 (Hoffmann-La Roche, published 2021).

In experiment [1] the target is T1, human FolR1 ECD-AcTev-Fcknob-Avi tag + Fc hole, biotinylated monomeric Fc fusion (human, UniProt P0DOX5 223-449 = IgG part).
T1 construct: also called huFolR1; huFolR1-Fc
Kind of experiment: SPR, IgG single injection. Background: SPR reads the build-up and loss of mass on a sensor chip optically.

Experiment [2] has as its target T2, cynomolgus FolR1 ECD-AcTev-Fcknob-Avi tag + Fc hole, biotinylated monomeric Fc fusion (cynomolgus, UniProt P0DOX5 223-449 = IgG part).
T2 construct: also called cyFolR1; cyno FolR1-Fc
Put plainly: SPR, IgG single injection.

For experiment [3], the target named is T3, human FolR2 ECD-AcTev-Fcknob-Avi tag + Fc hole, biotinylated monomeric Fc fusion (human, UniProt P0DOX5 223-449 = IgG part).
T3 construct: also called huFolR2; FolR2-Fc
Put plainly: SPR, IgG single injection.

For experiment [4], the target named is T4, human FolR3 ECD-AcTev-Fcknob-Avi tag + Fc hole, biotinylated monomeric Fc fusion (human, UniProt P0DOX5 223-449 = IgG part).
T4 construct: also called huFolR3; FolR3-Fc
Kind of experiment: SPR, IgG single injection.

Experiment [5] concerns the target T5, murine FolR1 ECD-AcTev-Fcknob-Avitag + Fc hole, biotinylated monomeric Fc fusion (murine, UniProt P0DOX5 223-449 = IgG part).
T5 construct: also called muFolR1; murine FolR1-Fc
Put plainly: SPR, apparent KD, bivalent binding, 2.3 uM folate in running buffer.
Procedure: (§1) Binding of FolR1 binders as IgG or in the T-cell bispecific format to different recombinant folate receptors (human FolR1, 2 and 3, murine FolR1 and cynomolgus FolR1; all as Fc fusions) was assessed by surface plasmon resonance (SPR).
(§2) Recombinant biotinylated monomeric Fc fusions of human, cynomolgus and murine Folate Receptor 1 (FolR1-Fc) were directly coupled on a SA chip using the standard coupling instruction (Biacore, Freiburg/Germany). The immobilization level was about 300-400 RU. The anti-FolR1 IgGs or T cell bispecifics were passed at a concentration range from 2.1 to 500 nM with a flow of 30 μL/minutes through the flow cells over 180 seconds. The dissociation was monitored for 600 seconds. Bulk refractive index differences were corrected for by subtracting the response obtained on reference flow cell immobilized with recombinant biotinylated IL2 receptor Fc fusion. […] The binding curves resulting from the bivalent binding of the IgGs or T cell bispecifics were approximated to a 1:1 Langmuir binding and fitted with that model (which is not correct, but gives an idea of the avidity). The apparent avidity constants for the interactions were derived from the rate constants of the fitting using the Bia Evaluation software (GE Healthcare).

The target in experiment [6] is T6, human FolR1 on cells (human, UniProt P15328 25-234).
T6 construct: also called FolR1 on HeLa, SKOV3, HT-29 tumor cells; HEK cells transfected with human FolR1
Kind of experiment: flow cytometry on HeLa cells (human FolR1), fluorescently labeled anti-human secondary antibody. In general terms: Flow cytometry measures light scatter and fluorescence of single cells or particles in a stream.
Procedure: (§3) Binding of newly generated FolR1 binders to FolR1 expressed on HeLa cells were determined by flow cytometry. Bound antibodies were detected with a fluorescently labeled anti-human secondary antibody.
(§4) The identified binders were converted into a human IgG1 format and binding to FolR1 high expressing HeLa cells was addressed.

Experiment [7] deals with T5, murine FolR1 ECD-AcTev-Fcknob-Avitag + …. Kind of experiment: SPR, 500 nM IgG single injection.
For experiment [8], the target named is T1, human FolR1 ECD-AcTev-Fcknob-Avi tag + …. Kind of experiment: SPR, apparent KD, bivalent binding (avidity).
Procedure: as §1, §2
For experiment [9], the target named is T2, cynomolgus FolR1 ECD-AcTev-Fcknob-Avi …. Kind of experiment: SPR, apparent KD, bivalent binding (avidity).
Procedure: as §1, §2
Experiment [10] concerns the target T5, murine FolR1 ECD-AcTev-Fcknob-Avitag + …. Put plainly: SPR, apparent KD, bivalent binding (avidity).
Procedure: as §1, §2
Experiment [11] addresses T1, human FolR1 ECD-AcTev-Fcknob-Avi tag + …. Kind of experiment: SPR, bivalent binding (avidity), antigen on SA chip.
Procedure: as §1, §2
For experiment [12], the target named is T2, cynomolgus FolR1 ECD-AcTev-Fcknob-Avi …. The description is as above.
Procedure: as §1, §2
The target in experiment [13] is T5, murine FolR1 ECD-AcTev-Fcknob-Avitag + …. The experiment is described as above.
Procedure: as §1, §2
Experiment [14] concerns the target T6, human FolR1 on cells. Put plainly: flow cytometry on HeLa cells (human FolR1), fluorescently labeled anti-human secondary antibody. This is another data set of the same source.
Procedure: as §3, §4
The target in experiment [15] is T7, cynomolgus FolR1 on transiently transfected HEK cells (cynomolgus, UniProt P15328 25-234 (human entry)).
T7 construct: also called cyno FolR1; cyFoLR1
Kind of experiment: flow cytometry on HEK cells transiently transfected with cyno FolR1, anti-human secondary antibody.
Source text: Cross-reactivity of the FolR1 antibodies to cyno FolR1 was addressed on HEK cells transiently transfected with cyFolR1 by flow cytometry. The antibodies were detected with a fluorescently labeled anti-human secondary antibody.
In parallel cross-reactivity of the FolR1 clones to cyno FolR1 was addressed by performing binding studies to HEK cells transiently transfected with cyno FolR1.

The target of experiment [16] is human FolR2 on transiently transfected HEK cells (human, UniProt P14207 17-230). Kind of experiment: flow cytometry on HEK cells transiently transfected with human FolR2, anti-human secondary antibody; concentration not given.

Where two headings read alike, the source gives them in different places.

T6 sequence (P15328 25-234 limits assumed): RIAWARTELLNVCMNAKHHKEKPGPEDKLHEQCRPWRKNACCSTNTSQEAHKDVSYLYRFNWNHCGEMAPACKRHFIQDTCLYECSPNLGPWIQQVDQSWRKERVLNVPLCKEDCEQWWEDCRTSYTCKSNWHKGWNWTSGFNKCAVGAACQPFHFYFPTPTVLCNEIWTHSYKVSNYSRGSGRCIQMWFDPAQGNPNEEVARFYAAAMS
T7 sequence (P15328 other isoform, or with tags, fused parts or gaps limits assumed): as the sequence (P15328 25-234 limits assumed) above, with I2T, W4R, R37K, Q117R, A146P, H171Y counted along it
Sequence of human FolR2 on transiently transfected HEK cells (P14207 17-230 limits assumed): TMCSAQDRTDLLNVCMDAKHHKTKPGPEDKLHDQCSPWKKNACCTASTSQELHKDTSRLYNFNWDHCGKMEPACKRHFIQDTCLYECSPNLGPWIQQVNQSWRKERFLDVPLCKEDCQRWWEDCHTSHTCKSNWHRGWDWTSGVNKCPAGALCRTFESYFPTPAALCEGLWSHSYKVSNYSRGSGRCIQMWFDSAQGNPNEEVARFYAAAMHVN

B1: 19H3 IgG (antibody, V domains shown)
VH: QVQLVQSGAEVKKPGASVKVSCKASGYTFTSYYMHWVRQAPGQGLEWMGIINPSGGSTSYAQKFQGRVTMTRDTSTSTVYMELSSLRSEDTAVYYCARTGWSRWGYMDYWGQGTLVTVSS
VL: QAVVTQEPSLTVSPGGTVTLTCGSSTGAVTTSNYANWVQEKPGQAFRGLIGGTNKRAPGTPARFSGSLLGGKAALTLSGAQPEDEAEYYCALWYSNLWVFGGGTKLTVL
notes: human IgG1
For B1, the binding result is recorded as “no binding (tested: 500 nM)” in [1]; “no binding (tested: 500 nM)” in experiment [2]; “no binding (tested: 500 nM)” in experiment [3]; “no binding (tested: 500 nM)” in experiment [4]; “binds” with human FolR1 on cells [6]. The Kd in experiment [5] came out at 1.55 nM.

B2: 20H7 IgG (antibody, V domains shown)
VH: QVQLVQSGAEVKKPGASVKVSCKASGYTFTSYYMHWVRQAPGQGLEWMGIINPSGGSTSYAQKFQGRVTMTRDTSTSTVYMELSSLRSEDTAVYYCARVGWYRWGYMDYWGQGTLVTVSS
VL: QAVVTQEPSLTVSPGGTVTLTCGSSTGAVTTSNYANWVQEKPGQAFRGLIGGTNKRAPGTPARFSGSLLGGKAALTLSGAQPEDEAEYYCALWYSNLWVFGGGTKLTVL
notes: human IgG1
With B2, the values for the binding result in [3], in experiment [4] and in experiment [7] were “no binding (tested: 500 nM)”, “no binding (tested: 500 nM)” and “binds”, respectively.

B3: 36F2 IgG (antibody, V domains shown)
VH: QVQLVQSGAEVKKPGASVKVSCKASGYTFTSYYMHWVRQAPGQGLEWMGIINPSGGSTSYAQKFQGRVTMTHDTSTSTVYMELSSLRSEDTAVYYCARSFFTGFHLDYWGQGTLVTVSS
VL: EIVLTQSPGTLSLSPGERATLSCRASQSVSSSYLAWYQQKPGQAPRLLIYGASSRATGIPDRFSGSGSGTDFTLTISRLEPEDFAVYYCQQYTNEHYYTFGQGTKVEIK
notes: human IgG1
The term koff denotes a measure of how fast the partners let go of each other. The term kon denotes the second-order rate constant of association. On to B3, for which the binding result is recorded as “no binding (tested: 500 nM)” in experiment [3]; “no binding (tested: 500 nM)” in [4]; “binds” in the experiment with human FolR1 on cells [14]; “binds” in experiment [15]; “no binding” in experiment [16]. The Kd stood at 5.74 nM in [8], 5.31 nM in experiment [9] and 1.63 nM in experiment [10]. Also, the koff was determined as 0.0151 s⁻¹ in experiment [11], 0.016 s⁻¹ in experiment [12] and 0.000603 s⁻¹ in [13]. For the same molecule, the kon in experiment [11] stood at 2.62e+06 M⁻¹ s⁻¹; in [12] it was 3.02e+06 M⁻¹ s⁻¹; in experiment [13] it was 370000 M⁻¹ s⁻¹.
